Tests used:
[1] = target: extracellular domain of human LEPR, GPI-anchored on HEK293 cells (HEK293/hLEPR-GPI) (human); assay: FACS, HEK293/hLEPR-GPI, 1 µM Leptin
[2] = target: full length human LEPR on cells (human) (UniProt P48357); assay: FACS, HEK293/Stat3-luc/hLEPR-FL
[3] = target: extracellular domain of human LEPR, GPI-anchored on HEK293 cells (HEK293/hLEPR-GPI) (human); assay: FACS, HEK293/hLEPR-GPI
[4] = target: extracellular domain of human LEPR, GPI-anchored on HEK293 cells (HEK293/hLEPR-GPI) (human); assay: FACS, HEK293/hLEPR-GPI, no added Leptin
[5] = target: full length human LEPR on cells (human) (UniProt P48357); assay: FACS, HEK293/Stat3-luc/hLEPR-FL, 70 nM Ab
[6] = target: extracellular domain of human LEPR, GPI-anchored on HEK293 cells (HEK293/hLEPR-GPI) (human); assay: FACS, HEK293/hLEPR-GPI, 70 nM Ab
[7] = target: Macaca fascicularis LEPR extracellular domain expressed with a C-terminal myc-myc-hexahistidine tag (mfLEPR.mmh) (Macaca fascicularis); assay: SPR, captured mAb, 25C
Sequence of Macaca fascicularis LEPR extracellular domain expressed with a C-terminal myc-myc-hexahistidine tag (mfLEPR.mmh) (Macaca fascicularis) (Q9MYL0 other isoform, or with tags, fused parts or gaps): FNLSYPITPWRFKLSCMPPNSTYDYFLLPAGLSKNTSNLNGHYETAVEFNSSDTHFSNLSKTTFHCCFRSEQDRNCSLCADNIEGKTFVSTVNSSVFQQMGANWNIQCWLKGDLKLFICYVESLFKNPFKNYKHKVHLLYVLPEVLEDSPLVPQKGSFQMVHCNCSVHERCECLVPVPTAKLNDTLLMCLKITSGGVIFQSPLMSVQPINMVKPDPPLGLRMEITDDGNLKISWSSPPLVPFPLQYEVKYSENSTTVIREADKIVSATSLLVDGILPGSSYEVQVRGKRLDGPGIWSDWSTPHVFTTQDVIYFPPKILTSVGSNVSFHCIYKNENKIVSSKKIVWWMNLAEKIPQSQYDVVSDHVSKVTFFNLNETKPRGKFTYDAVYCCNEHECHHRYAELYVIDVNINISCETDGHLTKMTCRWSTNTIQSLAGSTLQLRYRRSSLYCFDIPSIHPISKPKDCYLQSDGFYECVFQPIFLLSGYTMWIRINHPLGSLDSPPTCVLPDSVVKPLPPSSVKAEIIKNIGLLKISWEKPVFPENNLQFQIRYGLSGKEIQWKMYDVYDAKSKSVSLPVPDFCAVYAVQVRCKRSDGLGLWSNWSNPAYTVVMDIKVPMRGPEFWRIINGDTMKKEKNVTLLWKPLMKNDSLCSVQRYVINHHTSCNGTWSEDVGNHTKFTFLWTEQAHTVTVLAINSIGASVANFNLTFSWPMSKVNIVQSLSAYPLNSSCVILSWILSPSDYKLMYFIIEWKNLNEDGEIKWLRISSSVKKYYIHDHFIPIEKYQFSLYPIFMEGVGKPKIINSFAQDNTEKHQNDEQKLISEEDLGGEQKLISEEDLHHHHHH

Sequence of full length human LEPR on cells (human) (P48357 22-1165): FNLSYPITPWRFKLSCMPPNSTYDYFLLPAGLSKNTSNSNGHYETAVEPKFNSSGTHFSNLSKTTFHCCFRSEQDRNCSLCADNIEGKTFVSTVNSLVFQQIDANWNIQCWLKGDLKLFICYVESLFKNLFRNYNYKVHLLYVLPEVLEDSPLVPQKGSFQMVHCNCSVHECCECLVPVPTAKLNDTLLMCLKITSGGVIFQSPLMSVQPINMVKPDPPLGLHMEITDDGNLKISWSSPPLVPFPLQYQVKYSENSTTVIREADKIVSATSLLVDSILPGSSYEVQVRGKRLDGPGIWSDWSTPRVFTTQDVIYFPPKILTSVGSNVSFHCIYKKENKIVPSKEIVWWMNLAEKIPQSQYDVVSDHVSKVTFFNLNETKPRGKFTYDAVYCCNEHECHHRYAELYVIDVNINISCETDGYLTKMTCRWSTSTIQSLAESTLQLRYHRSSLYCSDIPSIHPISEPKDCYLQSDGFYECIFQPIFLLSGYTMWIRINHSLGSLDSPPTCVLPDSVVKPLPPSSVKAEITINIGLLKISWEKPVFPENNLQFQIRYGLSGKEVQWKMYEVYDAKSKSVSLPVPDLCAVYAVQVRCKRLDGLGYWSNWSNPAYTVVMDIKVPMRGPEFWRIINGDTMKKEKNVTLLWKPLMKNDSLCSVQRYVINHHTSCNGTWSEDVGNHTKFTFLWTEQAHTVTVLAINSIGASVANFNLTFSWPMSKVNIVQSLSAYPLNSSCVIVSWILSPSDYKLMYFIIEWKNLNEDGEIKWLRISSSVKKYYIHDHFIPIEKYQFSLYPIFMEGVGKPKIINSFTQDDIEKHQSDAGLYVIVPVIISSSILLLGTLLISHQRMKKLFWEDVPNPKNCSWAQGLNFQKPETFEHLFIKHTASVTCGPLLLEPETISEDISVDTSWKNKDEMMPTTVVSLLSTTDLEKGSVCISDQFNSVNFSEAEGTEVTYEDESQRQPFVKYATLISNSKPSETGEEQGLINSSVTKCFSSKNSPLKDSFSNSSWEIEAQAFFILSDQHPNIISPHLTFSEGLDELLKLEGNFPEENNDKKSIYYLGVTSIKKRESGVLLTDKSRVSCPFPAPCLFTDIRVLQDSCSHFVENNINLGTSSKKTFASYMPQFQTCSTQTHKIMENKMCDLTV

Row | Substance | Binding Ratio (fold over unstained) [1] | Binding Ratio (fold over unstained) [2] | Binding Ratio (fold over unstained) [3] | Binding Ratio (fold over unstained) [4] | Binding Ratio (fold over unstained) [5] | Binding Ratio (fold over unstained) [6] | 100 nM mfLEP.MMH Bound (RU) [7] [RU]
1 | Alexa Fluor-647 conjugated secondary antibody (Jackson ImmunoResearch Laboratories Inc., #109-547-003) | 3 | 1 | 1 | 3 | – | – | –
2 | Isotype Control mAb (antibody) | – | – | – | – | 2 | 2 | 0

Reference: US20250051465A1
